# Test: label from the status in PepcDB records
row,Sequence,protein production
1,MPVQNRIHKGINMNSYAHLNVEKRGHTAVVTIDNPPANTWNRASLTALKQLVADLNADRDIYALVITGQGEKFFSAGADLNLFADGDKKVATEMTLLFGEAFEALSAFRGVSIAAINGYAMGGGLECALACDIRIAEEQAQMALPEAGVGLLPCAGGTQNLPWLVGEGWAKRMILCGERVNAATAERIGLVEQVVAKGEALAAALKLAEGVARQSPSSVGVCKQLVQAARTQPPAWNLIKEREAFIKLFDTQDQAEGTRAFLEKRAPNWKNA,failed
2,MKSVAGGLLRIGMRHDHDMTNRRLDAVILAGGCAHRLGGVAKANLRVGTRRLLDVVLDAVDGAREGLEGSNVVVARESVEVPWSVIRTMEDPPGSGPLAGIRAGLQALPPAQPDDLVLVCAVDSPGIGRSIRQLREALEDDPLNHFAGAVTFGGVPKPHRQLLQGLYRRVPLEASIAAADTVVNRSVHSVLGGLCLLDLPVEPEACRDLDTPGDVEWWLRHIGD,failed
3,MRMRRSFPFLAGSALLVVLSAPAVAADGDEGFTIGDSRITESSGLAASRLHPGVYWTHNDSDDGPYLYAVDSRTGKTVATVTLSGVGSPRDVEAISIGPGNEIYVGDIGDNLGGQWDHVWIYELPEPKVLEDQTIRATQYVVKYADGARDAESLMVHPKTGRVYIVDKKEDGGHLYEGPARLSASGTNVFEPLGAVGLWATDAAFSPDGKQLAVRGYFGGIAYTWNGGKIKRQGQLSVPLQRQGESVTYTADGSELMYGSEGADSAVKPGSVPGYSGSGAKSPSGGGGSASAQDGDSDGSHANYKVGALALAVALALGLGVKRLLRRG,failed
4,MNWAKFRETGSPEDTDMSSTPISSDTTAVSKVIDPNYVLMVADFFKAISPDESCNDFTSFDSFSVLFQNNTRALSIARGRVSCSVTVTPGISNFFKGLHGGAVASIAERVAMACVKTVVSEDKHLFIGELSMSYLSSAPISSELLVEGTVVRTGRNLSVVTVEFKIKETMKVTYLSRATFYHSPISKL,failed
5,MNSEENTDSIPIDLILDILSRLPSKSIARCRCVSKLWESMIRQSYFTELFLTRSSSRPHLLIAVEQEGEWKFFSLPQPKNYLGKSSLVVAANLHLKFFEDKRPQHGCSYASSLIYFPNMTIRKKGDDHLGVICNPSTGQYGYVILPPLLDFKSVPYGKFLGFDPIDKQFKVLIPIFDFDKHQTDHHILTLGAETVGWRKIQSPLRYLPHSNGTICINGILYYLAKINYAMDKNVLVCFDVRSENFVFLRLNTYCSSTKLVNYKGKLGMINQEYVDDGGFPLKLSVWVLEDVGKEEWSTYVYTLRDDNKVDQVKYNLSVVGVTASGEIVLVKKTQTLKPFYVLYFNPDKNTLLTVEVKGLHRGLYAVHRIYAFVDHVEDLEFNIMKTTYAAKSKFSQEDRF,failed
6,MVIPFISGTLCQFQLSRWLITQAPALPCGPKLGAPTRQRRGCKVAQLWMYFLALAVVYLLPGPDMILLLQTGARQGKAQALATALGLALSRGCHVALAALGLAALFKAAPWTFDLVRLAGAAYLLWIGIQCLRANLLPNLEPGTAAATPLRWREAIQRGLLTNLLNPKALLFCSVLLPQFVDPQAGAVVPQFMTLGVLLVAVGGLFDCCYALAGAGLGRWMQRSPSAQRVQQWLFGSLLIGFALRLTFVQQA,failed
7,MRVVVISSFVSVSLQLSFLLLLASAIRSSSSPPNDPFLGISPQDEKYYKSSSEIKCKDGSKKFTKAQLNDDFCDCSDGTDEPGTSACPTGKFYCRNAGHSPVILFSSRVNDGICDCCDGSDEYDGHVSCQNTCWEAGKAARENLKKKIETYNQGLVIRRQEIEQAKVGLEKDAAELKKLKSEQKILKGLVDQLKDRKEQIEKVEEKERLQKEKEEKEKKEAELAAQQGKGDAEEKTDDSEKVEESSHDEGTPAVSQHDETTHHDEIGNYKDYPSDEEPAAEGEPTSILDEATHTNPADEHVVERKEESTSSEDSSSPTDESQNDGSAEKEESDEVKKVEDFVTEKKEELSKEELGRLVASRWTGEKSDKPTEADDIPKADDQENHEHTPITAHEADEDDGFVSDGDEDTSDDGKYSDHEPEDDSYEEEYRHDSSSSYKSDADDDVDFSETTSNPTWLEKIQKTVKNILLAVNLFQTTPVDKSEADRVRKEYDESSSKLNKIQSRISSLEKKLKQDFGPEKEFYSFHGRCFESKQGKYTYKVCAYKEATQEEGYSKTRLGEWDKFENSYQFMSYTNGEKCWNGPDRSLKVKLRCGLKNELMDVDEPSRCEYAAILSTPARCLEDKLKELQQKLEKLMNQDKPQNHDEL,failed
8,ADNNKWKPLFGKNLENANYNPEVWSETDGVLGAVKDESIWTKDEYENFELDLDFKTDVGTNSGVVVYCTDTKDWIPNSVEIQIADDHCEKWGNGKPYEKCGAIYGHLGAVQDKVVKKPGEWNHMRIKCAGQHIMVILNGKKVTEMDMSKWTSGTKNPDGSDIPSWLPKPFAELPTKGFIGLQGKHGDSLIWFRNIKIRSL,not failed

# — a protein production outcome set (Wang et al. 2014)
